Measured values: the supplement of paper PMC10724198
± gives the standard deviation of the averaged measurements.

Assays:
[1] = system: Saccharomyces cerevisiae; experiment: protein stability index of tFT-peptide fusion (C-terminal peptide) (PSI (0-1 scale)); higher = more stable (slower turnover)
Procedure: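 MPS profiling in S. cerevisiae of the tFT-X12 degron library: putative degron peptides plus stable controls, 12 aa, fused to the C-terminus of a sfGFP-mCherry timer. Cells are FACS-sorted into 8 mCherry/sfGFP bins and deep-sequenced. PSI runs from 0 (unstable) to 1 (stable). Backgrounds are wild type, das1Δ and doa10Δ at 30 °C, and wild type, das1Δ, cdc34-1 and cdc53-1 at 37 °C; 2-3 technical replicates each.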

[2] = system: Saccharomyces cerevisiae; experiment: as above; settings: genetic background: wild type; temperature: 30 C
[3] = genetic background: cdc34-1, temperature: 37 C
[4] = genetic background: cdc53-1, temperature: 37 C
[5] = genetic background: das1 deletion, temperature: 30 C
[6] = genetic background: das1 deletion, temperature: 37 C
[7] = genetic background: doa10 deletion, temperature: 30 C
[8] = genetic background: wild type, temperature: 30 C
[9] = genetic background: wild type, temperature: 37 C
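Note: PSI is a weighted mean of sequencing reads over stability bins, variants kept only with over 10 reads, mCherry proximal and sfGFP distal, peptide attached via GGGS linker.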

| Sequence | protein stability index [1, 3] | protein stability index [1, 4] | protein stability index [1, 5] | protein stability index [1, 6] | protein stability index [1, 7] | protein stability index [1, 8] | protein stability index [1, 9] | protein stability index [2] |
| --- | --- | --- | --- | --- | --- | --- | --- | --- |
| YMNLYKNVISVT | 0.473 ± 0.044 | 0.47 ± 0.054 | 0.378 ± 0.024 | 0.522 ± 0.0072 | 0.316 ± 0.021 | 0.353 ± 0.024 | 0.457 ± 0.0095 | 0.408 ± 0.057 |
| LFMRGEDEMFSV | 0.722 ± 0.052 | 0.758 ± 0.024 | 0.658 ± 0.01 | 0.7826 ± 0.0013 | 0.668 ± 0.012 | 0.672 ± 0.022 | 0.766 ± 0.036 | 0.746 ± 0.018 |
| HDLRRRVVSVMV | 0.48 ± 0.046 | 0.4601 ± 0.0032 | 0.337 ± 0.025 | 0.55 ± 0.022 | 0.258 ± 0.013 | 0.297 ± 0.03 | 0.47615 ± 0.00044 | 0.372 ± 0.061 |
| FCCWCVCFGYSG | 0.575 ± 0.093 | 0.604 ± 0.013 | 0.395 ± 0.019 | 0.582 ± 0.0089 | 0.372 ± 0.02 | 0.394 ± 0.025 | 0.549 ± 0.007 | 0.443 ± 0.0049 |
| GCVMSVCSLAVS | 0.605 ± 0.019 | 0.624 ± 0.0098 | 0.45 ± 0.027 | 0.5659 ± 0.0049 | 0.453 ± 0.025 | 0.458 ± 0.011 | 0.54537 ± 2.2e-05 | 0.486 ± 0.013 |
| ICWVSLYFSMLV | 0.457 ± 0.018 | 0.479 ± 0.019 | 0.373 ± 0.018 | 0.5069 ± 0.0045 | 0.3348 ± 0.00038 | 0.333 ± 0.025 | 0.464 ± 0.028 | 0.406 ± 0.084 |
| VFVGWVLCVVGG | 0.04576 ± 0.00018 | 0.161 ± 0.0032 | 0.143 ± 0.021 | 0.2762 ± 0.00081 | 0.0778 ± 0.03 | 0.132 ± 0.027 | 0.2377 ± 0.002 | 0.218 ± 0.045 |
| YHGVYLARVLQA | 0.639 ± 0.0084 | 0.677 ± 0.021 | 0.604 ± 0.011 | 0.69 ± 0.015 | 0.243 ± 0.011 | 0.286 ± 0.024 | 0.501 ± 0.029 | 0.45 ± 0.041 |
| PVPPRVNLLRVS | 0.619 ± 0.034 | 0.6641 ± 0.0053 | 0.542 ± 0.028 | 0.6735 ± 0.0053 | 0.215 ± 0.0024 | 0.263 ± 0.031 | 0.475 ± 0.011 | 0.3959 ± 0.0035 |
| WYLLCESCLLCL | 0.534 ± 0.021 | 0.536 ± 0.0079 | 0.406 ± 0.025 | 0.562 ± 0.011 | 0.39 ± 0.013 | 0.408 ± 0.025 | 0.558 ± 0.0046 | 0.494 ± 0.0075 |
| WVYVFVSLFFVV | 0.185 ± 0.0071 | 0.2552 ± 0.0011 | 0.204 ± 0.029 | 0.347 ± 0.013 | 0.196 ± 0.017 | 0.17 ± 0.018 | 0.289 ± 0.0062 | 0.263 ± 0.0029 |
| LVRDEVLKVKLV | 0.6432 ± 0.004 | 0.718 ± 0.011 | 0.643 ± 0.018 | 0.722 ± 0.013 | 0.138 ± 0.0093 | 0.17 ± 0.021 | 0.244 ± 0.0095 | 0.297 ± 0.014 |
| FFACSLLFVLVF | 0.0985 ± 0.0033 | 0.175 ± 0.022 | 0.177 ± 0.022 | 0.27 ± 0.0076 | 0.1392 ± 0.0012 | 0.17 ± 0.027 | 0.226 ± 0.014 | 0.228 ± 0.0075 |
| PRFLRWLFSLLI | 0.739 ± 0.039 | 0.704 ± 0.012 | 0.705 ± 0.015 | 0.769 ± 0.044 | 0.597 ± 0.0095 | 0.592 ± 0.014 | 0.739 ± 0.041 | 0.515 ± 0.032 |
| DIGCLWSKTRLC | 0.669 ± 0.019 | 0.7585 ± 0.0073 | 0.652 ± 0.0094 | 0.763 ± 0.015 | 0.324 ± 0.022 | 0.359 ± 0.017 | 0.6042 ± 0.0039 | 0.431 ± 0.12 |
| SKSRKTGWMLIS | 0.622 ± 0.055 | 0.743 ± 0.029 | 0.632 ± 0.033 | 0.74 ± 0.013 | 0.156 ± 0.014 | 0.164 ± 0.033 | 0.427 ± 0.022 | 0.153 ± 0.015 |
| CWLFVWVRVISL | 0.0995 ± 0.049 | 0.118 ± 0.01 | 0.155 ± 0.038 | 0.23174 ± 3.6e-05 | 0.103 ± 0.024 | 0.12 ± 0.033 | 0.158 ± 0.018 | 0.186 ± 0.033 |

| Sequence | protein stability index [1, 3] | protein stability index [1, 4] | protein stability index [1, 5] | protein stability index [1, 6] | protein stability index [1, 7] | protein stability index [1, 8] | protein stability index [1, 9] | protein stability index [2] |
| --- | --- | --- | --- | --- | --- | --- | --- | --- |
| YVDSGLTLIHLA | 0.606 ± 0.0079 | 0.723 ± 0.036 | 0.662 ± 0.018 | 0.72 ± 0.013 | 0.17091 ± 8.6e-05 | 0.181 ± 0.023 | 0.334 ± 0.011 | 0.297 ± 0.021 |
| FVVHPARYYLVL | 0.558 ± 0.077 | 0.682 ± 0.019 | 0.595 ± 0.023 | 0.664 ± 0.017 | 0.355 ± 0.0048 | 0.385 ± 0.02 | 0.489 ± 0.014 | 0.4265 ± 0.0029 |
| VLISLVLLFRCW | 0.23 ± 0.015 | 0.244 ± 0.038 | 0.262 ± 0.023 | 0.386 ± 0.016 | 0.307 ± 0.028 | 0.248 ± 0.03 | 0.332 ± 0.017 | 0.408 ± 0.041 |
| LRSPCALVLLLI | 0.495 ± 0.022 | 0.5317 ± 0.0035 | 0.376 ± 0.029 | 0.556 ± 0.0056 | 0.213 ± 0.0037 | 0.237 ± 0.024 | 0.441 ± 0.0051 | 0.336 ± 0.0096 |
| VFRLFFLLVWLV | 0.079 ± 0.016 | 0.0744 ± 0.019 | 0.184 ± 0.023 | 0.25 ± 0.0081 | 0.1663 ± 0.00045 | 0.112 ± 0.026 | 0.13 ± 0.021 | 0.123 ± 0.014 |
| WFFTDIVMLVRV | 0.126 ± 0.014 | 0.12 ± 0.044 | 0.192 ± 0.026 | 0.277 ± 0.0094 | 0.237 ± 0.0069 | 0.193 ± 0.023 | 0.233 ± 0.018 | 0.273 ± 0.0098 |
| CFGFMFLLLFDV | 0.3073 ± 0.0011 | 0.312 ± 0.0066 | 0.334 ± 0.024 | 0.448 ± 0.013 | 0.467 ± 0.011 | 0.317 ± 0.027 | 0.418 ± 0.0039 | 0.405 ± 0.02 |
| RSITFFPVCLVK | 0.316 ± 0.079 | 0.389 ± 0.06 | 0.293 ± 0.029 | 0.491 ± 0.014 | 0.253 ± 0.021 | 0.289 ± 0.018 | 0.426 ± 0.013 | 0.382 ± 0.016 |
| SSRPLSPQSLRL | 0.637 ± 0.2 | 0.709 ± 0.043 | 0.601 ± 0.051 | 0.71 ± 0.0077 | 0.60715 ± 0.00031 | 0.605 ± 0.067 | 0.658 ± 0.032 | 0.553 ± 0.17 |
| PFSLCFVFPFFF | 0.52 ± 0.021 | 0.5891 ± 0.0011 | 0.567 ± 0.035 | 0.6329 ± 0.0063 | 0.143 ± 0.0063 | 0.174 ± 0.0044 | 0.28 ± 0.0092 | 0.187 ± 0.0097 |
| LFGFLCVVMCCG | 0.533 ± 0.014 | 0.521 ± 0.0067 | 0.44 ± 0.02 | 0.511 ± 0.03 | 0.412 ± 0.023 | 0.4422 ± 0.00067 | 0.485 ± 0.034 | 0.434 ± 0.028 |
| VLVLSFLYRMVK | 0.353 ± 0.065 | 0.4364 ± 0.0007 | 0.312 ± 0.054 | 0.507 ± 0.013 | 0.271 ± 0.013 | 0.304 ± 0.017 | 0.436 ± 0.032 | 0.376 ± 0.033 |
| YSRFALRPQLLV | 0.553 ± 0.051 | 0.634 ± 0.013 | 0.512 ± 0.025 | 0.62 ± 0.029 | 0.172 ± 0.0042 | 0.184 ± 0.024 | 0.327 ± 0.0056 | 0.285 ± 0.011 |
| ARCKRSLSGGIG | 0.489 ± 0.034 | 0.579 ± 0.02 | 0.512 ± 0.012 | 0.5452 ± 0.00083 | 0.531 ± 0.0073 | 0.524 ± 0.022 | 0.54 ± 0.011 | 0.588 ± 0.14 |
| IFVLLSYYPLFV | 0.263 ± 0.016 | 0.279 ± 0.012 | 0.265 ± 0.019 | 0.422 ± 0.012 | 0.288 ± 0.016 | 0.243 ± 0.027 | 0.391 ± 0.0059 | 0.338 ± 0.018 |
| KIVNNTKKNKCH | 0.638 ± 0.048 | 0.684 ± 0.0087 | 0.652 ± 0.039 | 0.738 ± 0.012 | 0.153 ± 0.021 | 0.195 ± 0.046 | 0.26 ± 0.058 | 0.226 ± 0.025 |
